B1: CDKL4 (parent)
chain: AVKKFVESEDDPVVKKIALREIRM

Variants of: B1
Assay: protein stability index of a GFP-peptide fusion (GPS, HEK-293T) (PSI 1-6); higher = more stable
Settings: c terminus: a fixed tail appended
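Also: lentivirally expressed fusions sorted by FACS into six bins by GFP to DsRed ratio, PSI derived from sequencing read proportions per bin multiplied by bin number.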

| Variant | protein stability index |
| --- | --- |
| D10C | 2.15 |
| D10H | 2.82 |
| D10Q | 2.8 |
| D10G | 3.07 |
| D10I | 1.81 |
| D10W | 2.16 |
| D10K | 2.68 |
| D10L | 1.68 |
| D10P | 2.72 |
| D10M | 2.65 |
| D10N | 2.91 |
| D10A | 2.58 |
| D10T | 2.78 |
| D10F | 1.77 |
| D10V | 2.23 |
| D10S | 2.83 |
| D10Y | 1.84 |
| D10R | 3.15 |
| D10E | 2.99 |
| F5T | 4 |
| F5V | 3.81 |
| F5C | 4.34 |
| F5I | 2.94 |
| F5K | 3.55 |

| Variant | protein stability index |
| --- | --- |
| F5E | 3.94 |
| F5A | 3.66 |
| F5D | 3.75 |
| F5Q | 3.01 |
| F5P | 4.07 |
| F5H | 3.24 |
| F5L | 2.98 |
| F5S | 4.46 |
| F5G | 4.28 |
| F5N | 3.14 |
| F5W | 2.47 |
| F5Y | 3.46 |
| F5M | 3.33 |
| F5R | 3.63 |
| S8C | 2.54 |
| S8D | 3.12 |
| S8R | 2.43 |
| S8V | 2.64 |
| S8Y | 3.17 |
| S8E | 3.07 |
| S8H | 3.02 |
| S8M | 3.04 |
| S8K | 3.15 |
| S8F | 2.08 |

| Variant | protein stability index |
| --- | --- |
| S8A | 2.92 |
| S8W | 2.24 |
| S8G | 2.68 |
| S8P | 2.7 |
| S8Q | 3.27 |
| S8I | 2.54 |
| S8L | 1.91 |
| S8N | 3.32 |
| S8T | 3.14 |
| K4G | 3.5 |
| K4D | 4.07 |
| K4H | 2.88 |
| K4R | 2.7 |
| K4V | 2.55 |
| K4M | 2.34 |
| K4W | 2.43 |
| K4F | 2.13 |
| K4A | 3.07 |
| K4P | 4.01 |
| K4S | 3.15 |
| K4Y | 2.25 |
| K4T | 3.25 |
| K4C | 2.6 |
| K4Q | 3.17 |

| Variant | protein stability index |
| --- | --- |
| K4E | 3.55 |
| K4L | 2.49 |
| K4N | 2.92 |
| K4I | 1.88 |
| V6T | 3.16 |
| V6W | 2.57 |
| V6Y | 2.57 |
| V6H | 3.08 |
| V6C | 2.82 |
| V6Q | 3.42 |
| V6K | 3.26 |
| V6F | 2.1 |
| V6P | 3.78 |
| V6E | 3.72 |
| V6R | 2.48 |
| V6N | 3.6 |
| V6A | 3.07 |
| V6G | 3.33 |
| V6L | 3.23 |
| V6M | 3.23 |
| V6D | 3.65 |
| V6I | 1.93 |
| V6S | 3.17 |
| V13K | 3.27 |

| Variant | protein stability index |
| --- | --- |
| V13H | 3.11 |
| V13A | 3.23 |
| V13C | 2.67 |
| V13R | 3.08 |
| V13N | 3.28 |
| V13Y | 2.3 |
| V13E | 3.35 |
| V13L | 2.93 |
| V13P | 3.29 |
| V13W | 2.49 |
| V13S | 3.48 |
| V13T | 3.77 |
| V13F | 2.5 |
| V13M | 2.73 |
| V13I | 2.83 |
| V13Q | 3.47 |
| V13G | 3.54 |
| V13D | 3.67 |
| I17T | 4.48 |
| I17S | 4.28 |
| I17E | 3.93 |
| I17P | 3.53 |
| I17N | 3.7 |
| I17H | 3.33 |

| Variant | protein stability index |
| --- | --- |
| I17Q | 3.46 |
| I17D | 4.36 |
| I17V | 3.22 |
| I17M | 2.87 |
| I17G | 3.08 |
| I17K | 3.87 |
| I17W | 2.15 |
| I17Y | 2.85 |
| I17A | 3.95 |
| I17C | 3.32 |
| I17L | 2.57 |
| I17R | 3.45 |
| I17F | 2.79 |
| P12G | 2.57 |
| P12W | 1.82 |
| P12A | 3.04 |
| P12M | 1.95 |
| P12C | 3.05 |
| P12T | 2.76 |
| P12F | 2.66 |
| P12Y | 2.18 |
| P12K | 3.23 |
| P12N | 3.08 |
| P12E | 3.88 |

| Variant | protein stability index |
| --- | --- |
| P12I | 2.52 |
| P12L | 2.55 |
| P12H | 2.77 |
| P12V | 2.48 |
| P12R | 3.46 |
| P12Q | 2.45 |
| P12S | 2.99 |
| P12D | 3.22 |
| K3V | 1.95 |
| K3M | 2.28 |
| K3P | 3.02 |
| K3Y | 2.28 |
| K3E | 3.72 |
| K3T | 2.86 |
| K3D | 3.23 |
| K3L | 2.34 |
| K3S | 3.23 |
| K3N | 3.45 |
| K3C | 2.66 |
| K3I | 1.91 |
| K3G | 2.74 |
| K3F | 1.76 |
| K3W | 2.35 |
| K3Q | 3.04 |

| Variant | protein stability index |
| --- | --- |
| K3R | 3.39 |
| K3H | 3.6 |
| K3A | 2.83 |
| E9S | 2.97 |
| E9G | 2.43 |
| E9A | 2.4 |
| E9R | 2.51 |
| E9F | 2.09 |
| E9C | 2.23 |
| E9L | 1.64 |
| E9T | 3.02 |
| E9D | 2.69 |
| E9Q | 3.19 |
| E9I | 2.51 |
| E9M | 1.76 |
| E9Y | 1.74 |
| E9N | 2.56 |
| E9V | 2.48 |
| E9K | 2.69 |
| E9H | 2.71 |
| E9W | 2.38 |
| E9P | 2.34 |
| A18G | 3.65 |
| A18E | 3.37 |

| Variant | protein stability index |
| --- | --- |
| A18Y | 2.69 |
| A18N | 3.35 |
| A18F | 1.76 |
| A18T | 3.45 |
| A18Q | 3.79 |
| A18S | 3.4 |
| A18W | 2.43 |
| A18C | 2.25 |
| A18V | 2.6 |
| A18D | 3.84 |
| A18K | 3.03 |
| A18H | 2.79 |
| A18P | 3.57 |
| A18L | 2.29 |
| A18M | 1.94 |
| A18R | 2.76 |
| A18I | 2.21 |
| E7Q | 2.54 |
| E7I | 2 |
| E7S | 3.04 |
| E7G | 1.99 |
| E7Y | 2.32 |
| E7L | 1.97 |
| E7P | 2.97 |

| Variant | protein stability index |
| --- | --- |
| E7F | 1.94 |
| E7A | 2.99 |
| E7C | 2.36 |
| E7D | 2.71 |
| E7W | 2.14 |
| E7R | 2.52 |
| E7M | 2.43 |
| E7N | 3.19 |
| E7V | 2.54 |
| E7T | 2.52 |
| E7K | 2.61 |
| E7H | 2.18 |
| V2A | 3.8 |
| V2I | 2.31 |
| V2M | 2.79 |
| V2N | 3.63 |
| V2F | 2.52 |
| V2P | 3.74 |
| V2Q | 3.56 |
| V2R | 2.85 |
| V2S | 3.51 |
| V2C | 2.85 |
| V2K | 3.55 |
| V2L | 3.7 |

| Variant | protein stability index |
| --- | --- |
| V2H | 3.03 |
| V2E | 4.01 |
| V2G | 3.82 |
| V2W | 2.1 |
| V2D | 3.71 |
| V2Y | 2.52 |
| V2T | 3.35 |
| L19C | 4.26 |
| L19A | 3.87 |
| A1T | 3.1 |
| A1Q | 3.3 |
| A1P | 3.17 |
| A1R | 2.45 |
| A1N | 3.38 |
| A1V | 2.43 |
| A1S | 3.94 |
| A1Y | 2.2 |
| A1W | 2.72 |
| D11I | 2.58 |
| D11P | 2.81 |
| D11H | 2.96 |
| D11Q | 2.81 |
| D11K | 3.22 |
| D11V | 2.44 |

| Variant | protein stability index |
| --- | --- |
| D11M | 2.44 |
| D11W | 3.34 |
| D11T | 3 |
| D11A | 2.61 |
| D11E | 3.15 |
| D11L | 1.81 |
| D11N | 3.19 |
| D11C | 2.16 |
| D11F | 2.25 |
| D11G | 1.8 |
| D11R | 2.61 |
| D11S | 2.87 |
| D11Y | 2.46 |
| V14A | 3.01 |
| V14S | 2.98 |
| V14L | 2.89 |
| V14D | 3.48 |
| V14M | 2.69 |
| V14W | 2.65 |
| V14I | 2.56 |
| V14F | 2.01 |
| V14K | 2.82 |
| V14R | 3.44 |
| V14N | 3.5 |

| Variant | protein stability index |
| --- | --- |
| V14H | 3.38 |
| V14Q | 3.71 |
| V14E | 4.1 |
| V14Y | 2.54 |
| V14G | 2.97 |
| V14C | 3.74 |
| V14T | 3.26 |
| V14P | 3.12 |
| K16C | 2.92 |
| K16N | 3.52 |
| K16M | 3.17 |
| K16T | 3.11 |
| K16V | 2.27 |
| K16F | 2.77 |
| K16S | 3.23 |
| K16E | 3.95 |
| K16R | 3.18 |
| K16A | 3.77 |
| K16H | 3.22 |
| K16G | 3.57 |
| K16Q | 3.48 |
| K16I | 2.19 |
| K16P | 2.61 |
| K16L | 2.63 |

| Variant | protein stability index |
| --- | --- |
| K16Y | 2.44 |
| K16D | 3.48 |
| K16W | 2.05 |
| K15F | 2.58 |
| K15G | 2.82 |
| K15C | 2.52 |
| K15V | 1.6 |
| K15Y | 1.81 |
| K15S | 2.59 |
| K15I | 2.4 |
| K15H | 3.14 |
| K15R | 2.81 |
| K15T | 2.66 |
| K15N | 2.88 |
| K15D | 3.59 |
| K15A | 2.26 |
| K15P | 3.46 |
| K15E | 3.44 |
| K15Q | 2.86 |
| K15L | 1.95 |
| K15M | 1.87 |
| K15W | 2.06 |
